Measured values reported in IntAct's records for PubMed 20664522.

B1: CAP-Gly domain-containing linker protein 1 (Rattus norvegicus (Rat)), Q9JK25 (parent)
chain: MSMLKPSGLKAPTKILKPGSTALKTPAAAAAPLEKTVPSEKASGPPSSETQEEFVDDFRVGERVWVNGNKPGFIQFLGETQFAPGQWAGIVLDEPIGKNDGSVAGVRYFQCEPLKGIFTRPSKLTRKVQAEDEANGLQTAHARAASPLSTAAATMVSSSPATPSNIPQKPSQPVAKETSATPQISNLTKTASESISNLSEAGSVKKGERELKIGDRVLVGGTKAGVVRFLGETDFAKGEWCGVELDEPLGKNDGAVAGTRYFQCQPKYGLFAPVHKVTKIGFPSTTPAKAKAAAVRRVMATTPASLKRSPSASSLSSMSSVASSVSSKPSRTGLLTETSSRYARKISGTTALQEALKEKQQHIEQLLAERDLERAEVAKATSHVGEIEQELALARDGHDQHVLELEAKMDQLRTMVEAADREKVELLNQLEEEKRKVEDLQFRVEEESITKGDLETQTKLEHARIKELEQSLLFEKTKADKLQRELEDTRVATVSEKSRIMELEKDLALRVQEVAELRRRLESSKPPGDVDMSLSLLQEISALQEKLEVTHTDHQNEVTSLKDHFGTREEMFQKEIKALHAATEKLSKENESLRSKLDHANKENSDVIALWKSKLETAIASHQQAMEELKVSFSKGIGTDSAEFAELKTQIERLRLDYQHEIESLQSKQDSERSAHAKEMESMKAKLMKIIKEKEDSLEAVKARLDTAEDQHLVEMEEMLSKLQEAEIKKEKFASASEEAVSTQTSMQDTVNKLHQKEEQFNMLSSELEKLRENLTDMEAKFKEKDEREDQLVKAKEKLENDIAEIMKMSGDNSSQLTKMNDELRLKERSVEELQLKLTKANENASLLQKSIGEVTLKAEQSQQEAAKKHEEEKKELENKLLELEKKMETSHYQCQDLKAKYEKASSETKIKHEEILQNFQKMLVDTEDKLKAAQEANRDLMQDMEELKSQADKAKAAQTAEDAMQIMEQMTKEKTETLASLEDTKQTNAKLQSELDTLKENNLKTVEELNKSKELLNEENQKMEEFKKEIETLKQAAAQKSQQLSALQEENVKLAEELGRTRDEVTSHQKLEEERSVLNNQLLEMKKSLPSNTLRESEYRKDADEEKASLQKSISLTSALLTEKDAELEKLRNEVTVLRGENASAKSLHSVVQTLESDKVKLELKVKNLELQLKENKRQLSSSSGNTDVQTEEDERAQESQQMIDFLNSVIVDLQRKNQDLKMKVEMMSEAALNGNGEDPNSYDSDDQEKQSKKKPRLFCDICDCFDLHDTEDCPTQAQMSEDPPHSTHHGSRSEERPYCEICEMFGHWATNCNDDETF
B2: CAP-Gly domain-containing linker protein 1 (Homo sapiens), P30622 (parent)
chain: MSMLKPSGLKAPTKILKPGSTALKTPTAVVAPVEKTISSEKASSTPSSETQEEFVDDFRVGERVWVNGNKPGFIQFLGETQFAPGQWAGIVLDEPIGKNDGSVAGVRYFQCEPLKGIFTRPSKLTRKVQAEDEANGLQTTPASRATSPLCTSTASMVSSSPSTPSNIPQKPSQPAAKEPSATPPISNLTKTASESISNLSEAGSIKKGERELKIGDRVLVGGTKAGVVRFLGETDFAKGEWCGVELDEPLGKNDGAVAGTRYFQCQPKYGLFAPVHKVTKIGFPSTTPAKAKANAVRRVMATTSASLKRSPSASSLSSMSSVASSVSSRPSRTGLLTETSSRYARKISGTTALQEALKEKQQHIEQLLAERDLERAEVAKATSHVGEIEQELALARDGHDQHVLELEAKMDQLRTMVEAADREKVELLNQLEEEKRKVEDLQFRVEEESITKGDLEQKSQISEDPENTQTKLEHARIKELEQSLLFEKTKADKLQRELEDTRVATVSEKSRIMELEKDLALRVQEVAELRRRLESNKPAGDVDMSLSLLQEISSLQEKLEVTRTDHQREITSLKEHFGAREETHQKEIKALYTATEKLSKENESLKSKLEHANKENSDVIALWKSKLETAIASHQQAMEELKVSFSKGLGTETAEFAELKTQIEKMRLDYQHEIENLQNQQDSERAAHAKEMEALRAKLMKVIKEKENSLEAIRSKLDKAEDQHLVEMEDTLNKLQEAEIKVKELEVLQAKCNEQTKVIDNFTSQLKATEEKLLDLDALRKASSEGKSEMKKLRQQLEAAEKQIKHLEIEKNAESSKASSITRELQGRELKLTNLQENLSEVSQVKETLEKELQILKEKFAEASEEAVSVQRSMQETVNKLHQKEEQFNMLSSDLEKLRENLADMEAKFREKDEREEQLIKAKEKLENDIAEIMKMSGDNSSQLTKMNDELRLKERDVEELQLKLTKANENASFLQKSIEDMTVKAEQSQQEAAKKHEEEKKELERKLSDLEKKMETSHNQCQELKARYERATSETKTKHEEILQNLQKTLLDTEDKLKGAREENSGLLQELEELRKQADKAKAAQTAEDAMQIMEQMTKEKTETLASLEDTKQTNAKLQNELDTLKENNLKNVEELNKSKELLTVENQKMEEFRKEIETLKQAAAQKSQQLSALQEENVKLAEELGRSRDEVTSHQKLEEERSVLNNQLLEMKKRESKFIKDADEEKASLQKSISITSALLTEKDAELEKLRNEVTVLRGENASAKSLHSVVQTLESDKVKLELKVKNLELQLKENKRQLSSSSGNTDTQADEDERAQESQIDFLNSVIVDLQRKNQDLKMKVEMMSEAALNGNGDDLNNYDSDDQEKQSKKKPRLFCDICDCFDLHDTEDCPTQAQMSEDPPHSTHHGSRGEERPYCEICEMFGHWATNCNDDETF

Variants of: B1
Settings: with csk2b_human CSNK2B
Target sequence in this assay (P67870 whole entry): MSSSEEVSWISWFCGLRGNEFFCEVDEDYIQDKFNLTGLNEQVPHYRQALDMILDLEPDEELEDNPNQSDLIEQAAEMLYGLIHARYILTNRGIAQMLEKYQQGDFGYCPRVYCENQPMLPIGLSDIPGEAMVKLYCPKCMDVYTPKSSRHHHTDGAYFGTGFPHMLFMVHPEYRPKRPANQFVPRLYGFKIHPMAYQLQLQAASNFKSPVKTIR

effect of a mutation on the interaction | Variant
increasing interaction | S194E

Variants of: B1
Settings: with dctn1_human DCTN1, Q14203
dctn1_human DCTN1, Q14203, sequence (Q14203 whole entry): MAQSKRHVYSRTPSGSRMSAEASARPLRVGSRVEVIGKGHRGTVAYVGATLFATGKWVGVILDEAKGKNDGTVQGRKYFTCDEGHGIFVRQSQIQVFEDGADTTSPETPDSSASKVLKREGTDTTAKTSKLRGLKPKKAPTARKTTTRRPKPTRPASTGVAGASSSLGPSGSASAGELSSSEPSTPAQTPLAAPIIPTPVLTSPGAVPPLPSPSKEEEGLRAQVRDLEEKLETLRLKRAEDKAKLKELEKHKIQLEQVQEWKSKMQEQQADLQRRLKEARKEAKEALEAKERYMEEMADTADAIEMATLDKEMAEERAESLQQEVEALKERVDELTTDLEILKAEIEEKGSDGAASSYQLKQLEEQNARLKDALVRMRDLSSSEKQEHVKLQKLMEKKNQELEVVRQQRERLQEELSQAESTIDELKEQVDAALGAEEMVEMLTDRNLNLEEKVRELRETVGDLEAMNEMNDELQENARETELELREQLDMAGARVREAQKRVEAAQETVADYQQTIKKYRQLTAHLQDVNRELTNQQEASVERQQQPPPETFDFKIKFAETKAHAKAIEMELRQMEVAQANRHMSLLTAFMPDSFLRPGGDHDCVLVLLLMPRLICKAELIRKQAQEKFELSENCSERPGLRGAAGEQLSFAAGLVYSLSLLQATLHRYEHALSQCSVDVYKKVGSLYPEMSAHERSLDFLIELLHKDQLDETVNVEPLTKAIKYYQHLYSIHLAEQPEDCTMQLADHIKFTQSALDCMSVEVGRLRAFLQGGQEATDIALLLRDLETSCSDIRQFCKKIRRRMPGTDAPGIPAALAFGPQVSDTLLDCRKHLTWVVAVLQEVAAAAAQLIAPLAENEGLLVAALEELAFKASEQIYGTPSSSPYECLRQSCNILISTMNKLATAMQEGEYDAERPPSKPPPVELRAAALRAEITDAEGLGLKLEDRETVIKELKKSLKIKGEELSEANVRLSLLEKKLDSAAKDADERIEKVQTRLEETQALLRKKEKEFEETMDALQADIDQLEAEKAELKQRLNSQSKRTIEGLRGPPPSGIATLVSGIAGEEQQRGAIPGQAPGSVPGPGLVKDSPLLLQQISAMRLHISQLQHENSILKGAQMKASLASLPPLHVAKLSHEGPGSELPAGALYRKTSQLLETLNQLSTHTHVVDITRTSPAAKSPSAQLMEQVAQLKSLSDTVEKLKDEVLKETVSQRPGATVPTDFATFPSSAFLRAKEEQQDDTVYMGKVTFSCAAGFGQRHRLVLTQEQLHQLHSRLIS

effect of a mutation on the interaction | Variant
disrupting interaction | S194A

Variants of: B1
Settings: with dctn1_human DCTN1, Q14203
Remark: another data set of the same source

effect of a mutation on the interaction | Variant
decreasing interaction | S1246A

Variants of: B2
Settings: with csk2b_human CSNK2B
Target sequence in this assay (P67870 whole entry): as the sequence (P67870 whole entry) above

effect of a mutation on the interaction | Variant
decreasing interaction | S195A
